Test results reported in article PMC3197140.

Target: ^15N labeled FLNA repeat 21

CBRM1/5 binding (αMβ2 activation) on human neutrophils treated with 50 µM peptide for 5 min at 37°C, flow cytometry: 2 fold
B1: WTMigfilinR9 peptide (peptide)
peptide: MASKPEKRVASSVFITLAPPRRDVRRRRRRRRR
